Here are results for one molecule from publication PMC9171633 (Proceedings of the National Academy of Sciences of the …, 2022).

The experiment deals with KRas WT G domain (UniProt P01116-1 1-166). The experiment in a line: pull-down.

B1: GST-RBD (domain or fragment)
chain: GLTSKESLFVRINAAHGFSLIQVDNTKVTMKEILLKAVKRRKGSQKVSGPQYRLEKQSEPNVAVDLDSTLESQSAWEFCLVRENSSRAD
Regarding B1, the binding result is on record as “binds”.
